Measured values: article PMC5971111 (Nature structural & molecular biology, 2018)

B2: Sec8 (natural protein)
chain: MDYLKPAQKGRRRGLSINSLSETQQSAMNSSLDHLQNDLNRINLQWNRILSDNTNPLELALAFLDDTSVGLGHRYEEFNQLKSQIGSHLQDVVNEHSQVFNTNVASYGKAVSSIMQAQEQTLNLKNCLKEANEKITTDKGSLQELNDNNLKYTKMIDVLVNIEELLQIPEKIEENIRKENFHQVQILLERGFILMNNKSLKTVEILKPINQQLELQEHLLFNNLIEEIHDIMYSKSNKTNFTRVTNNDIFKIISISHNGFTSLENYLYNIVNIDIMEHSKTINKNLEQFIHDQSLNKGNIMLQENAATQAPLAPSRNQENEGFNRIGFLLKTINNINKLPVAFNIITERAKEEIHNIIVKSTESIRSKHPSLLKMATSLKNDNHFGLPVQDILSIILRECFWEIFLKLLYAIQCHRAIFEMSNILQPTSSAKPAFKFNKIWGKLLDEIELLLVRYINDPELISSNNGSIKPINGATNNAPTLPKRKNPKIFSLEYNIEDNSSVKDQAFELKALLKDIFPGFSVSSNMDLDSIYVKDESFEQDEPLVPPSVFNMKVILDPFLLFTQSTSTIVPSVLTQNTISSLTFFDDYMNKSFLPKIQMTMDYLFTVEVESNNPYALELSDENHNIFKTALDFQRLFYNLLNVFNTANTFREKISYCILDLLNHFYNYYLGLFNSLIGTSDRHLTRKIITAWLQNGILMDQEQKILNGDETLFHEESIELFKEIPHFYQAGKGLSKSDLFNNLTLDTILQFSASVLWILNWLPGLKKAINIDEVSQEPMLDADRLRSSWTFSESMDLNYSNPSSSPNSLGNLKILLDDKASKKFDETIDGFKTLKFKLITILRFNIRALCIYDIGSFFQNTKIWNMDVGSIELDQNIASLISELRRTESKLKQQLPEKEKNSIFIGLDIVNNYALIKGAKSIKVLNHNGIKKMLRNVNVLQHAYRNLSSEPSKINMNVTMNFYSLCGSSEAELFEYIKDNELPHCSVEDLKTILRLQFSEEMHRQLKRQSTSSTKGSIKPSNKRYTEALEKLSNLEKEQSKEGARTKIGKLKSKLNAVHTANEK

Columns and labels:
[1] = target: B2; test: […]
[2] = target: T1, Sec3 (S. cerevisiae, UniProt P33332 1-1336); test: […]
T1 sequence: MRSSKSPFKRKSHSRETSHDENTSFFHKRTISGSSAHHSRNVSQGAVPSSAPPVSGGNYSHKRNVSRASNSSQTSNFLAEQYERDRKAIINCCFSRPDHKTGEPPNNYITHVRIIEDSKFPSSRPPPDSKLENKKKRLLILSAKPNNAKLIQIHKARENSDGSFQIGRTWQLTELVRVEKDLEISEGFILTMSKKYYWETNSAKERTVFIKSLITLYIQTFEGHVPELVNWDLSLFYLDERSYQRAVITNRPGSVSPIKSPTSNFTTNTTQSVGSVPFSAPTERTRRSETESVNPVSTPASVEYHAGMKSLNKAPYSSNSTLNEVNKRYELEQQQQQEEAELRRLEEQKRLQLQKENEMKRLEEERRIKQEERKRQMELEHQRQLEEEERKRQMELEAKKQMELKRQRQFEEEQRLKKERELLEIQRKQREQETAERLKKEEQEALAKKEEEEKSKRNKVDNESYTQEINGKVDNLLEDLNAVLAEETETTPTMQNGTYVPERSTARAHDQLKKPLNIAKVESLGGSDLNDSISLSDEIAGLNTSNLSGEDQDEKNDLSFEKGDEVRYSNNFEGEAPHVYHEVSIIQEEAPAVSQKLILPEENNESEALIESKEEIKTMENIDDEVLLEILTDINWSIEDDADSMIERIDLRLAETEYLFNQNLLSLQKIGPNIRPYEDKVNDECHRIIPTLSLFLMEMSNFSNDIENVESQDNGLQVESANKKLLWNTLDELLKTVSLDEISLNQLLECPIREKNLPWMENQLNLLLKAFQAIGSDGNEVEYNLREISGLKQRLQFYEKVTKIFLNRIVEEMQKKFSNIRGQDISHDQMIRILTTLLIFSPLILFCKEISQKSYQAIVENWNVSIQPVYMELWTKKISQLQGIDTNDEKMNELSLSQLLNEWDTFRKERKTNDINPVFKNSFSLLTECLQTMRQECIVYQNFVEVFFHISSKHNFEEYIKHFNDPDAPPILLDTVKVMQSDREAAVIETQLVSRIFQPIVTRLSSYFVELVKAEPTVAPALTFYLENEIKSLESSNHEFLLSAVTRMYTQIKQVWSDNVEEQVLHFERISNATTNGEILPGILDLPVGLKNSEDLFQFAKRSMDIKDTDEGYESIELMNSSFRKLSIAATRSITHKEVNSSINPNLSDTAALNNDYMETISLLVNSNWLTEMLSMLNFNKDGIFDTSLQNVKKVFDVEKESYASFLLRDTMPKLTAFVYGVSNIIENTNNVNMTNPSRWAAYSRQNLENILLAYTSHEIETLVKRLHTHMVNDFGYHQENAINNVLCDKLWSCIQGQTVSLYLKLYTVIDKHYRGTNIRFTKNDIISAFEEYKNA

B1: Sec5 (natural protein)
chain: MDRFQIGDEQLLRFYQLKTINPTHSWAQDSSKLNNEEATSNELGVETSFDILKDFKYGNQISIDKESRAYLNDESLSYIRDPLNGQEMSKELQHLPNDSMRLNYLVNSKQFNVKAFLRDMHKQDSFNDLNNSLDRLDSDIQDQSIHLKQLVGKNFTKYVKIKNKLDQIYKEFDEKTNEKNQCDSPKENQINVESLNKKVDEVIRTTTFKLKPLMDNYQKILNYQATKKFIELNKFYFNLPKSLKRCLTNNDFNEFIIEYSKGLTLRRRFNQSSDASQSLVIKRIWTQIENLLVTYKDLIWNSLINSNFNIDQPQETILSLFSKLLNLENFINNNQRESESGNKNTTSSSNENPILRWMSIKMNGFQNELNELSGHMISKIIHSQRLILQNNTNQDKSQGCVELSYYLKINQLFQIISDTGKDSEGLKSTVEPNKVNTISGTSYLNLNCQPSSQGLTDSPTIIEMWLLILKYINDLWKICDQFIEFWEHIEKFLDGTYQNSIINEKRKENILIGDSNIIESYQKSLILKEEQINEVRLKGEEFITSVSQNLISFFTSSQSSLPSSLKDSTGDITRSNKDSGSPLDYGFIPPNCNGLSCLRYLPKIVEPILKFSTELAQLNITTNGITICRNTLSTIINRCVGAISSTKLRDISNFYQLENWQVYETVTFSSKSQDSSKNLTFEYGVTQFPEIVTSFQEVSIKTTRDLLFAYEKLPIINGISVVSYPSKQLLTGIEIQQIISMEAVLEAILKNAAKDKDNPRNSHTILTLTNLQYFRECAFPNILQYFDDAFEWNLASKNLELFSLLSKMESSIFGNYLSDLKINLRDTLEEKFHEINWPMYTSNSFRVGDYIIEALMILIVVHSECFRIGPQLIHKILIETQIFIARYLFEAFKPYVGNLSNDGSLQIIVDLEFFQKVMGPLLEKDTEATLRACLQNCFQNDTNRLQKCINEINPIVSANLKRTAIQFAAFS
B1: binds [1]; binds [2].

B2: binds [2].

B3: Sec15 (natural protein)
chain: MDQEGQPLLSKDFQQVLLATASGNNSSWTERAVLNNESTDAVKHEPALGQNDVFDLDPLSFDKWVPFLRRALDKNQLDPVIDELENSIEDNFQGLELQLLQDSQMNDKLETSIDEIANIQGMVQDTLSSEISKFQIRLSESANELIVKKQMYVNNKKISLKISEATILITKVVRILELSSKCQELITERKFFKVLQNLDSLEKLYLQEFKNYNFQFLIEIYNSIPFLQKVTKDECINLIRNSLNLNLGKNLIKVGQEFVAIYENELLPQWLETRSKMKLTNFKFNSPIEISMRDESFLAKLNLGEFFQLDDFHDSIMIFQNLNELSVLSGEFNKEYELRKTKLMYPLIWKKNKTAAYQMDSLLRGTGTTPGSTAHDVSTDDPFTQSLSLHFLQDYFLKILGFLLYDINLNKATEFILVDNNYNSTNEFWDGLMDRLSPYLSYFIDEKLKTEEDMIKLKDFLCIYVAILENFKLNIEPLYKILVSIFEKFCSVSLRAFDDEFQILLNDDDFMPLSINDKTLYEKVLKICWMKEGEHLSLPDPTNGEPFAVTLPFSPLYPMTCTLAKKTYSKITAFLSIFYRHELHTLNNILVKTMDDIFNDIVNKKIRSKLESTSREEIAQILVNLDYFIIAAKEFSNFMTRENILQNPDMEIRLSSIKYLAESRKLAETKLIELIDSKISDILETIEIDWQITEVRQDPDISIIDLAQFLEMMFASTLQNLPYSVQTLLIFREFDSLTRQFMGLLLHDTPSTITHESIMNFEVDVNYLESIIPRIFPSTPGTIDSNGYQSPMTPSTPTFPNANGVDAPTLFENNIKSLEATFMELKQCIELLKTQGKDYNEPEIRLRKYSRIRQEDAALLLSKIQHFVSSVEGANGDDTSVMDSSSIFNSESASVIDSNTSRIAKFFNRR
B3: binds [1].
